The values below come from US20240132578A1.

What all share (assay): cell-based or functional assay
Assay [1] concerns the target HIV-1 Env of isolate MG RM-A-011 (pseudovirus) (HIV-1).
In assay [2] the target is HIV-1 Env of isolate MG RM-A-012 (pseudovirus) (HIV-1).
Assay [3] has as its target HIV-1 Env of isolate MGRM-C-020 (subtype C), on pseudovirus (HIV-1).
Assay [4] addresses HIV-1 Env of isolate VLGCA1 (pseudovirus) (HIV-1).
The target in assay [5] is HIV-1 Env of pseudovirus isolate MGRM-Chronic-B-008 (clade B) (HIV-1).
The target of assay [6] is HIV-1 Env of isolate 92TH021 (subtype AE) (HIV-1).
In assay [7] the target is HIV-1 Env of isolate 92UG005 (pseudovirus) (HIV-1).
The target in assay [8] is HIV-1 Env of isolate MGRM-A-004 (pseudovirus) (HIV-1).
Assay [9] addresses HIV-1 Env of isolate MGRM-A-010 (subtype A) (HIV-1).
In assay [10] the target is HIV-1 Env of isolate MGRM-A-011 (subtype A) (HIV-1).
Assay [11] has as its target HIV-1 Env of isolate MGRM-AG-003 (subtype AG) (HIV-1).
Assay [12] addresses HIV-1 Env of isolate MGRM-C-005 (HIV-1).
For assay [13], the target named is HIV-1 Env of isolate MGRM-D-018 (pseudovirus) (HIV-1).
Assay [14] addresses HIV-1 Env of isolate MGRM-F1-015 (HIV-1).
Assay [15] concerns the target HIV-1 Env of pseudovirus isolate MGRM-C-024 (clade C) (HIV-1).
The target of assay [16] is HIV-1 Env of pseudovirus isolate MGRM-C-025 (clade C) (HIV-1).
Assay [17] concerns the target HIV-1 Env of pseudovirus MGRM-D-011 (HIV-1).
Assay [18] concerns the target HIV-1 Env of pseudovirus MGRM-D-013 (HIV-1).
Assay [19] deals with HIV-1 Env of pseudovirus MGRM-D-014 (HIV-1).
For assay [20], the target named is HIV-1 Env of pseudovirus MGRM-D-026 (HIV-1).
Assay [21] concerns the target HIV-1 Env of pseudovirus MGRM-D-029 (HIV-1).
The target in assay [22] is HIV-1 Env of pseudovirus MGRM-F1-021 (HIV-1).
Assay [23] concerns the target HIV-1 envelope glycoprotein (Env) of isolate MG RM-AG-008 (HIV-1).
Assay [24] has as its target HIV-1 envelope glycoprotein (Env) of isolate MG RM-AG-011 (HIV-1).
The target of assay [25] is HIV-1 envelope glycoprotein (Env) of isolate MGRM-AE-007 (HIV-1).
In assay [26] the target is HIV-1 JR-CSF Env N396A (HIV-1 (isolate JR-CSF)) (UniProt P20871).
Assay [27] addresses HIV-1 MGRM-C-028 Env (HIV-1).

Sequence of PGT-145 (4995_P16) (antibody) (VH): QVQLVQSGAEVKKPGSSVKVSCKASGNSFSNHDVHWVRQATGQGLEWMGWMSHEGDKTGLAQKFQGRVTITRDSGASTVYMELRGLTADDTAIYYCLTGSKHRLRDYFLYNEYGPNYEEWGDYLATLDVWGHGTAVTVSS
Sequence of PGT-145 (4995_P16) (antibody) (VL): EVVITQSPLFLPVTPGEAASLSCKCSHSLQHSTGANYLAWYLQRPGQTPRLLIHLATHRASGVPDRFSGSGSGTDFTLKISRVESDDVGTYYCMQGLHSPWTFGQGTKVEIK
Sequence of PGT-144 (4970_K22) (antibody) (VH): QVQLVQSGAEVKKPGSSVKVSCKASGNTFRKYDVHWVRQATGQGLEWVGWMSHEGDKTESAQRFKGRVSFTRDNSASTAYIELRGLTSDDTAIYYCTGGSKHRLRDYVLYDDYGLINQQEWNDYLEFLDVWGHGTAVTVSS
Sequence of PGT-144 (4970_K22) (antibody) (VL): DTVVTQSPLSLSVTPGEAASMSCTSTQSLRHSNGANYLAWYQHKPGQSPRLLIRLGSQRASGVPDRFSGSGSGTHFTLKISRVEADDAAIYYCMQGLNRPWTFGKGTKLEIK
Sequence of 4995_E20 (PGT-142) (antibody) (VH): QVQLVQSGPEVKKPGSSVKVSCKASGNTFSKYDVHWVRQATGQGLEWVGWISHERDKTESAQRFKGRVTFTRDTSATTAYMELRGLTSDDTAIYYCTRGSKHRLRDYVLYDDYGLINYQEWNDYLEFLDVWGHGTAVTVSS
Sequence of 4995_E20 (PGT-142) (antibody) (VL): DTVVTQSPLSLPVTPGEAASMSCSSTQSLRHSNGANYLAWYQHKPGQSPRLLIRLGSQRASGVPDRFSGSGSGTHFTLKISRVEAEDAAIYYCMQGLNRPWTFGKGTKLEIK
Sequence of 4980_N08 (PGT-143) (antibody) (VH): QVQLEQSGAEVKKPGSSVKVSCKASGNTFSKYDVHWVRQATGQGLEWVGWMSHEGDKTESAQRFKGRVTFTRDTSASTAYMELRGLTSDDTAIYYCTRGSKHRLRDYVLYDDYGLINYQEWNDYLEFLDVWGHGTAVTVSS
Sequence of 4980_N08 (PGT-143) (antibody) (VL): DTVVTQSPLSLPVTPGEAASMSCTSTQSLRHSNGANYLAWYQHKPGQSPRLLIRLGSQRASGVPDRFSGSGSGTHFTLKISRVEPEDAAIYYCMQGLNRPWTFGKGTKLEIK
Sequence of 4993_K13 (PGT-141) (antibody) (VH): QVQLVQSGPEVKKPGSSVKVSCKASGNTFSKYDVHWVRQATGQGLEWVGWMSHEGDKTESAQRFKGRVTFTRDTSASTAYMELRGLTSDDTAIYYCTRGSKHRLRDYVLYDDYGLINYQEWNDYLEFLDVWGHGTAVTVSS

Consider 4993_K13 (PGT-141) (antibody), for which the IC50 (µg/mL), single-round pseudovirus neutralization in [1] was more than 50 µg/mL; in assay [2], more than 50 µg/mL; in assay [4], 2.07 µg/mL. Moreover, the IC50, single-round pseudovirus neutralization in assay [3] was determined as 1.34 µg/mL. Besides, the IC50, pseudovirus neutralization in assay [5] is more than 50 µg/mL.

For the substance 5329_C19 (PGT-136) (antibody), the IC50, pseudovirus neutralization in [6], in assay [9], in assay [10], in assay [11], in assay [15] and in [16] was more than 50 µg/mL in each case. Also, the IC50 (µg/mL), pseudovirus neutralization in [7], in assay [8], in assay [12], in [13] and in assay [14] was more than 50 µg/mL throughout.

The IC50 is the point on the concentration scale where inhibition reaches its midpoint. PGT-144 (4970_K22) (antibody): the IC50, pseudovirus neutralization in assay [17] was more than 50 µg/mL; in [18], more than 50 µg/mL; in assay [19], 0.113 µg/mL; in [20] it was more than 50 µg/mL; in assay [21], 0.459 µg/mL; in assay [22] it was more than 50 µg/mL. Besides, the values for the concentration for half-maximal inhibition (IC50) in assay [23], in assay [24] and in [25] were more than 50 µg/mL, 44.6 µg/mL and more than 50 µg/mL, respectively.

With PGT-142 (4995_E20) (antibody), the IC50, pseudovirus neutralization in [17] was more than 50 µg/mL; in assay [18], 0.221 µg/mL; in assay [19] it was 0.005 µg/mL; in assay [20], 12.5 µg/mL; in assay [21] it was 0.192 µg/mL; in [22], more than 50 µg/mL. Besides, the IC50 in assay [23] came out at 12.1 µg/mL; in assay [24], 0.081 µg/mL; in [25] it was 6.7 µg/mL.

On to 5114_A19 (PGT-128) (antibody), for which the IC50, pseudovirus neutralization was 0.01 µg/mL in assay [6]; 0.005 µg/mL in assay [9]; more than 50 µg/mL in assay [10]; 34.8 µg/mL in assay [11]; more than 50 µg/mL in assay [15]; 10.5 µg/mL in assay [16]. In addition, the IC50 (µg/mL), pseudovirus neutralization in assay [7] is 0.018 µg/mL; in assay [8], more than 50 µg/mL; in assay [12], 0.03 µg/mL; in assay [13], 0.008 µg/mL; in assay [14], more than 50 µg/mL. Moreover, the Fold IC50 increase relative to wild-type (pseudovirus neutralization) in assay [26] amounted to 0.9 fold.

Regarding 4995_E20 (PGT-142) (antibody), the results for the IC50 (µg/mL), single-round pseudovirus neutralization in assay [1], in assay [2] and in assay [4] were more than 50 µg/mL, more than 50 µg/mL and 2.75 µg/mL, respectively. The substance further gave an IC50, single-round pseudovirus neutralization in assay [3] of 0.446 µg/mL. The substance also yielded an IC50, pseudovirus neutralization in assay [5] of more than 50 µg/mL.

Turning to PGT-145 (4995_P16) (antibody), the IC50, pseudovirus neutralization in assay [17] is 14.7 µg/mL; in assay [18], 3.48 µg/mL; in assay [19], 2.51 µg/mL; in assay [20], 0.41 µg/mL; in assay [21] it was 0.03 µg/mL; in assay [22], 8.04 µg/mL. For the same substance, the IC50 in assay [23] came out at 0.244 µg/mL; in assay [24], 0.003 µg/mL; in [25], 0.181 µg/mL.

PGT-143 (4980_N08) (antibody): the IC50, pseudovirus neutralization in [17] is more than 50 µg/mL; in assay [18], 0.386 µg/mL; in assay [19] it was 0.009 µg/mL; in [20], 44.6 µg/mL; in [21], 0.2 µg/mL; in [22] it was more than 50 µg/mL. Also, the IC50 in [23] amounted to 34 µg/mL; in assay [24] it was 0.156 µg/mL; in assay [25], 13.6 µg/mL.

Turning to 5345_I01 (PGT-137) (antibody), the IC50, pseudovirus neutralization in assay [6], in assay [9], in assay [10], in assay [11], in assay [15] and in [16] was more than 50 µg/mL in each case. The IC50 (µg/mL), pseudovirus neutralization was more than 50 µg/mL in assay [7]; more than 50 µg/mL in [8]; more than 50 µg/mL in [12]; 15.1 µg/mL in [13]; more than 50 µg/mL in [14].

Consider 5136_H01 (PGT-131) (antibody), for which the IC50, pseudovirus neutralization in [6] was 0.014 µg/mL; in assay [9], 0.01 µg/mL; in [10] it was more than 50 µg/mL; in assay [11] it was 2.92 µg/mL; in assay [15], more than 50 µg/mL; in [16], more than 50 µg/mL. The IC50 (µg/mL), pseudovirus neutralization is 0.854 µg/mL in assay [7]; more than 50 µg/mL in assay [8]; 1.36 µg/mL in [12]; 0.148 µg/mL in assay [13]; more than 50 µg/mL in [14]. In assay [26], this substance came in with a Fold IC50 increase relative to wild-type (pseudovirus neutralization) of 0.9 fold.

For the substance 4970_K22 (PGT-144) (antibody), the IC50 (µg/mL), single-round pseudovirus neutralization in assay [1], in assay [2] and in assay [4] was more than 50 µg/mL each time. This substance also displayed an IC50, single-round pseudovirus neutralization in assay [3] of 1.29 µg/mL. The same substance had an IC50, pseudovirus neutralization in assay [5] of more than 50 µg/mL.

On to 5147_N06 (PGT-130) (antibody), for which the IC50, pseudovirus neutralization in assay [6] is 0.009 µg/mL; in assay [9], 0.005 µg/mL; in assay [10], more than 50 µg/mL; in assay [11], 0.041 µg/mL; in [15], more than 50 µg/mL; in assay [16] it was more than 50 µg/mL. In addition, the IC50, pseudovirus neutralization in assay [27] was more than 10 µg/mL. In addition, the IC50 (µg/mL), pseudovirus neutralization in assay [7] is 0.959 µg/mL; in assay [8], more than 50 µg/mL; in assay [12] it was 0.935 µg/mL; in [13] it was 0.049 µg/mL; in assay [14] it was more than 50 µg/mL. The substance also gave a Fold IC50 increase relative to wild-type (pseudovirus neutralization) in [26] of 1 fold.

On to 4980_N08 (PGT-143) (antibody), for which the values for the IC50 (µg/mL), single-round pseudovirus neutralization in [1], in assay [2] and in [4] were more than 50 µg/mL, more than 50 µg/mL and 17.4 µg/mL, respectively. This substance displayed an IC50, single-round pseudovirus neutralization in [3] of 0.797 µg/mL. Also, the IC50, pseudovirus neutralization in assay [5] was more than 50 µg/mL.

Turning to PGT-141 (4964_G22; 4993_K13) (antibody), the IC50, pseudovirus neutralization is more than 50 µg/mL in assay [17]; 0.179 µg/mL in assay [18]; 0.01 µg/mL in assay [19]; 32.5 µg/mL in [20]; 0.057 µg/mL in [21]; more than 50 µg/mL in assay [22]. In addition, the values for the IC50 in [23], in assay [24] and in assay [25] were 19.2 µg/mL, 0.118 µg/mL and 33.1 µg/mL, respectively.

With 5343_B08 (PGT-135) (antibody), the IC50, pseudovirus neutralization in [6], in assay [9], in assay [10], in [11], in assay [15] and in assay [16] was more than 50 µg/mL each time. The IC50 (µg/mL), pseudovirus neutralization is more than 50 µg/mL in [7]; more than 50 µg/mL in assay [8]; more than 50 µg/mL in [12]; 0.039 µg/mL in assay [13]; 1.11 µg/mL in assay [14]. Also, the Fold IC50 increase relative to wild-type (pseudovirus neutralization) in assay [26] is 1 fold.
